Assay [1] addresses T1, N-terminal FLAG-tagged human ROBO4 extracellular region/domain deletion variant hROBO4-210 (human, UniProt Q8WZ75 210-1007).
T1 construct: On transfected HEK293 cells; also called pCI-FLAG-hROBO4-210; pCI-hROBO4-210
T1 sequence: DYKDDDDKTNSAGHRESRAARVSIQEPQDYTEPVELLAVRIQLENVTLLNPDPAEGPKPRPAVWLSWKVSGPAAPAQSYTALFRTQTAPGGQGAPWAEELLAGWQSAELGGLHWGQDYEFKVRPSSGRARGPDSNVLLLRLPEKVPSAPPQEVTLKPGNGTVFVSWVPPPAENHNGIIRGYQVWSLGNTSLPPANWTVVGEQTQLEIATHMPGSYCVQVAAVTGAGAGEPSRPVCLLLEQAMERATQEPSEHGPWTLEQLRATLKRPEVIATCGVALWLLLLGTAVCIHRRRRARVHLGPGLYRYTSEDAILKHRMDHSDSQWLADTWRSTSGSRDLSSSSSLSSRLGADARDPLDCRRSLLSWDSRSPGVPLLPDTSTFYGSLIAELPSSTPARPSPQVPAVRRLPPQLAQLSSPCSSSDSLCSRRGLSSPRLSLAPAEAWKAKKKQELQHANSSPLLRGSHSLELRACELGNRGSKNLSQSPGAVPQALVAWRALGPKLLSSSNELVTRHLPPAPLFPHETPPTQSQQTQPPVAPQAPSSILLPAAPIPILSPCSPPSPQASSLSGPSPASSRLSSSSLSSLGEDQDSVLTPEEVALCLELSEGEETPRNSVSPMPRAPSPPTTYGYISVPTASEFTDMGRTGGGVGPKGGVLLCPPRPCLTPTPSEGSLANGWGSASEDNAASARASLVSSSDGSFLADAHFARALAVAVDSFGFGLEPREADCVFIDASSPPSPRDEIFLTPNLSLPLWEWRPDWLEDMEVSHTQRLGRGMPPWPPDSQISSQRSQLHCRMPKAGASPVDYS
Kind of assay: flow cytometry, HEK293 cells transfected with pCI-FLAG-hROBO4-210, anti-mouse IgG FITC; control histogram IgG (Mouse IgG2a). The protocol: (§1) HEK293 cells were inoculated at a concentration of 1.5×10⁶ cells/dish to a 60-mm dish (manufactured by Corning Inc.) and cultured overnight in a DMEM medium containing 10% FBS at 37° C. under 5% CO₂ conditions. […] On the next day, the expression vector-transfected cells were treated with TrypLE Express (manufactured by Life Technologies Corp.), washed with PBS containing 5% FBS, and then suspended in PBS containing 5% FBS. The obtained cell suspension was used in flow cytometry analysis.
(§2) Each cell suspension prepared in 4)-5-1 was centrifuged, and the supernatant was removed. Then, MAb1, a positive control Monoclonal ANTI-FLAG M2 antibody produced in mouse, or a negative control Mouse IgG2a was added at a concentration of 10 μg/mL to 2×10⁵ expression vector-transfected cells, and the resulting suspension was left standing at 4° C. for 1 hour. The cells were washed once with PBS containing 5% FBS. Then, Anti-Mouse IgG FITC conjugate diluted 1000-fold with PBS containing 5% FBS was added thereto, and the resulting suspension was left standing at 4° C. for 1 hour. […] Data was analyzed using Flowjo. The histogram of FITC fluorescence intensity was prepared. The antibody was determined to bind to a cell when the histogram of MAb1 was shifted to a stronger fluorescence intensity region compared with the histogram of the negative control Mouse IgG2a. […]
Background: In flow cytometry, cells or beads pass a laser one at a time.

The target in assay [2] is T2, N-terminal FLAG-tagged full-length human ROBO4 (pCI-FLAG-hROBO4-28) (human, UniProt Q8WZ75 28-1007).
T2 construct: On transfected HEK293 cells
T2 sequence: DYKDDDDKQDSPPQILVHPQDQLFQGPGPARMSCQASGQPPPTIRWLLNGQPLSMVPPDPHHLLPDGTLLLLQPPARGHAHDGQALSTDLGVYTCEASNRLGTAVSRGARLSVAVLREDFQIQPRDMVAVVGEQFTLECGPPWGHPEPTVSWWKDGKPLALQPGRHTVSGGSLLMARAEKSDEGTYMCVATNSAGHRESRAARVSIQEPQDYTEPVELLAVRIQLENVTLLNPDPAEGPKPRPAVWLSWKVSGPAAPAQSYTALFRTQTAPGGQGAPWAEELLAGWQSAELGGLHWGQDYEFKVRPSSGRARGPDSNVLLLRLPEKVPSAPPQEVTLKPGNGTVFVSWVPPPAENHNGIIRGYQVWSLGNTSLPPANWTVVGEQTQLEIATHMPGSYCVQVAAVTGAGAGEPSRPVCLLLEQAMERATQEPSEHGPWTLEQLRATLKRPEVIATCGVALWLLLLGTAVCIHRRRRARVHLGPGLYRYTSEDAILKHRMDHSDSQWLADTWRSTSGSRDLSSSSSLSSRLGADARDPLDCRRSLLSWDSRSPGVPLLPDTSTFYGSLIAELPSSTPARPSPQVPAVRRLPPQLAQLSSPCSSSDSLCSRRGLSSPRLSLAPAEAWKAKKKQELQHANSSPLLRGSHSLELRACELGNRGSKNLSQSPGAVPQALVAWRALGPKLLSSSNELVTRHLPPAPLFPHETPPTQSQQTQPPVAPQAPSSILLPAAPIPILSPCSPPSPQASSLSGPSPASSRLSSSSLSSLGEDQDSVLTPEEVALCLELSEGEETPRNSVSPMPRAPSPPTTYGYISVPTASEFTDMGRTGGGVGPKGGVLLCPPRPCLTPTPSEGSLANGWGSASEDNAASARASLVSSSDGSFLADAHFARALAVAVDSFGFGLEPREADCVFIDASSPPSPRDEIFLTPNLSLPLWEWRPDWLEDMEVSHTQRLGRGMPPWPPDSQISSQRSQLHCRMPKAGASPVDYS
Put plainly: flow cytometry, HEK293 cells transfected with pCI-FLAG-hROBO4-28, antibody at 10 µg/mL, anti-mouse IgG FITC; control histogram IgG (Mouse IgG2a). The protocol: as §1, §2

B1: anti-ROBO4 mouse monoclonal antibody MAb1 (antibody, mouse IgG1, V domains shown)
VH: EVQLVESGGGLVKPGGSLKLSCAASGFTFSTYAMSWVRQTPEKRLEWVATISNGGTYTYYPDSVKGRFTISRDNAENTLYLQMSSLRSEDTAMYFCARLIYYDYLDYWGHGTTLTVSS
VL: DAVMTQTPLSLPVSLGDQASISCRSSQSLENSNGNTYLNWYFQKPGQSPQLLIYRVSNRFSGVLDRFSGSGSGTDFTLKISRVEAEDFGVYFCLQVTHVPWTFGGGTKLEIKR
notes: Mouse IgG1 (gamma1), kappa light chain, purified from hybridoma supernatant; also called parent antibody MAb1
For the molecule B1, the binding result in assay [1] was “no binding (tested: 10 µg/mL)”; in assay [2], “binds”.

The record behind these values is patent US20150098945A1 (Daiichi Sankyo, published 2015).
